Assay results published in the supplement of paper PMC6755084.

B1: F1*; the commonest letter at each place (parent)
chain: GAGACCGCAACTGAAAAGTTGTTATCACTTGTCGTAAGACACTTTGGATGGGTTGAAGTTCTGCACGTAGAAGCAAAAGGC

Variants of: B1
Test: fraction ligated after 30 min (ligated reads / total reads); higher = more ligase activity
Conditions: with F1*sub RNA substrate (template-directed ligation), 42 °C
Procedure, shortened: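 Oligo-pool templates of ligase ribozyme variants were PCR-amplified, T7-transcribed and gel-purified. Ligated and unligated bands were gel-separated, reverse transcribed with barcoded primers, and MiSeq-sequenced; core bases were filtered at quality ≥20. Fraction ligated per variant was ligated reads over total reads.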

Variant | fraction ligated
T35G C42T | 0.838
T35G C42A | 0.846
A36C A39G | 0.826
A36C A39T | 0.802
A36C A39C | 0.803
T35A T45G | 0.408
T35A T45A | 0.797
T35A T45C | 0.788
T35A T49A | 0.763
T35A T49G | 0.817
T35A T49C | 0.768
A36C T45A | 0.771
A36C T45G | 0.362
A36C T45C | 0.753
G34C T35A | 0.815
G34C T35G | 0.829
G34C T35C | 0.835
G34T C42T | 0.848
G34T C42A | 0.849
G34T C42G | 0.841
T35A A57T | 0.809
T35A A57C | 0.82
T35A A57G | 0.847
G34T A56G | 0.785

Variant | fraction ligated
G34T A56C | 0.805
G34T A56T | 0.793
G34T A48C | 0.756
G34T A48G | 0.77
G34T A48T | 0.801
A36C T49A | 0.767
A36C T49C | 0.712
A36C T49G | 0.798
T35G A56C | 0.802
T35G A56G | 0.791
T35G A56T | 0.802
T35A C42A | 0.845
T35A C42G | 0.847
T35A C42T | 0.85
T35C C40T | 0.862
T35C C40G | 0.817
T35C C40A | 0.84
G34C G47T | 0.352
G34C G47C | 0.365
G34C G47A | 0.774
T35C A37G | 0.881
T35C A37C | 0.845
T35C A37T | 0.847
T35C A56G | 0.782

Variant | fraction ligated
T35C A56T | 0.796
T35C A56C | 0.759
G34C A39T | 0.781
G34C A39C | 0.806
G34C A39G | 0.807
G34C T45G | 0.0478
G34C T45C | 0.733
G34C T45A | 0.0783
A36C G47T | 0.356
A36C G47C | 0.224
A36C G47A | 0.81
G34T G46A | 0.823
G34T G46T | 0.763
G34T G46C | 0.778
G34C T44G | 0.84
G34C T44C | 0.803
G34C T44A | 0.816
G34T A37C | 0.844
G34T A37G | 0.829
G34T A37T | 0.843
G34T A41T | 0.763
G34T A41G | 0.768
G34T A41C | 0.755
T35A T44C | 0.826

Variant | fraction ligated
T35A T44A | 0.838
T35A T44G | 0.821
G34C A41T | 0.778
G34C A41C | 0.808
G34C A41G | 0.758
T35G T43C | 0.807
T35G T43A | 0.819
T35G T43G | 0.801
T35A T43C | 0.794
T35A T43A | 0.84
T35A T43G | 0.807
T35A A37C | 0.872
T35A A37G | 0.844
T35A A37T | 0.86
T35A A39C | 0.828
T35A A39G | 0.851
T35A A39T | 0.838
A36C T43C | 0.806
A36C T43G | 0.797
A36C T43A | 0.82
G34T G55T | 0.81
G34T G55A | 0.835
G34T G55C | 0.796
A36C T44A | 0.827

Variant | fraction ligated
A36C T44G | 0.827
A36C T44C | 0.815
A36C C40T | 0.818
A36C C40G | 0.818
A36C C40A | 0.804
A36C | 0.833
A36G | 0.862
T35C G38C | 0.815
T35C G38A | 0.856
T35C G38T | 0.821
G34T G50T | 0.767
G34T G50C | 0.396
G34T G50A | 0.606
G34T G38T | 0.82
G34T G38A | 0.836
G34T G38C | 0.83
T35A A36C | 0.865
T35A A36T | 0.85
T35A A36G | 0.857
A36C A57G | 0.816
A36C A57T | 0.844
A36C A57C | 0.813
G34T | 0.848
G34T A57T | 0.81

Variant | fraction ligated
G34T A57G | 0.84
G34T A57C | 0.806
G34C A37C | 0.806
G34C A37T | 0.839
G34C A37G | 0.845
A36C A48G | 0.784
A36C A48C | 0.778
A36C A48T | 0.8
G34C G46T | 0.762
G34C G46A | 0.789
G34C G46C | 0.757
T35G A41C | 0.808
T35G A41T | 0.839
T35G A41G | 0.816
G34C G50C | 0.329
G34C G50T | 0.733
G34C G50A | 0.17
T35G A48C | 0.755
T35G A48T | 0.789
T35G A48G | 0.79
T35G G47A | 0.78
T35G G47C | 0.222
T35G G47T | 0.391
G34T G47T | 0.363

Variant | fraction ligated
G34T G47C | 0.342
G34T G47A | 0.764
T35A A41C | 0.792
T35A A41T | 0.831
T35A A41G | 0.811
T35C A57G | 0.822
T35C A57T | 0.825
T35C A57C | 0.813
T35A G50T | 0.792
T35A G50A | 0.638
T35A G50C | 0.474
T35C A41G | 0.783
T35C A41C | 0.777
T35C A41T | 0.819
T35G T45G | 0.388
T35G T45C | 0.747
T35G T45A | 0.772
G34T T49G | 0.772
G34T T49C | 0.633
G34T T49A | 0.756
T35G G50A | 0.659
T35G G50C | 0.486
T35G G50T | 0.795
